{
  "source": "patent US12397036B2",
  "about": "“Peptide exchange protein” (Cambridge Enterprise Limited, priority 2018, dated 2025)",
  "molecules": {"B1": {"name": "soluble TAPBPR^WT: secreted His-tagged luminal domain of human TAPBPR, lacking transmembrane domain and cytoplasmic tail; SEQ ID NO: 2 (protein)", "chain": "KPHPAEGQWRAVDVVLDCFLVKDGAHRGALASSEDRARASLVLKQVPVLDDGSLEDFTDFQGGTLAQDDPPIIFEASVDLVQIPQAEALLHADCSGKEVTCEISRYFLQMTETTVKTAAWFMANVQVSGGGPSISLVMKTPRVAKNEVLWHPTLNLPLSPQGTVRTAVEFQVMTQTQSLSFLLGSSASLDCGFSMAPGLDLISVEWRLQHKGRGQLVYSWTAGQGQAVRKGATLEPAQLGMARDASLTLPGLTIQDEGTYICQITTSLYRAQQIIQLNIQASPKVRLSLANEALLPTLICDIAGYYPLDVVVTWTREELGGSPAQVSGASFSSLRQSVAGTYSISSSLTAEPGSAGATYTCQVTHISLEEPLGASTQVVPPERR", "modifications": "His tag; TAPBPR luminal domain (mature sequence without 21 aa leader sequence)"}},
  "key": {"[1]": {"target": "T1, surface MHC class I molecules (HLA-A*68:02) on HeLaM cells (Homo sapiens, UniProt P04439, A269V/D140Y/D185E/E176V/E277Q/E87N/F33Y/G231S/I121R/I166T/I218V/L180W/L300P/L318F/N151K/P208A/P217A/Q86R/R138H/R169H/S129P/T345S/V36M)", "T1 construct": "HLA-A68 (MHC class I) expressed on HeLa; endogenous in cells; host or cells: HeLaM and derivatives (TAPBPR-KO with or without TAPBPR/tapasin constructs, +Her2, Her2-KO, +PDL1, pD-GFP); in some arms HeLaM-HLA-ABC-KO re-expressing HLA-A*68:02", "assay": "Binding of exogenous soluble TAPBPR to cells (PeTe-4 staining)", "conditions": "100 nM, 15 min, 37° C.", "protocol": "(§1) (g) Dose response curves of IFN-γ treated HeLaM and HeLaM-HLA-ABC^KO cells treated −/+100 nM TAPBPR with increasing concentrations of ETVSK*QSNV for 15 min at 37° C. Line graphs show MFI−/+s.e.m from three independent experiments. […] (h) Histograms of the typical fluorescent peptide binding observed using flow cytometry. (i) Bar graphs showing the MFI of fluorescent peptide binding to HeLaM HLA-ABC^KO+A2−/+s.e.m from two independent experiments with duplicates. ***P≤0.001, ****P≤0.0001, n/s not significant, using unpaired two-tailed t-test.\n(§2) Following trypsinisation, cells were washed in 1% bovine serum albumin (BSA), dissolved in 1×PBS at 4° C. and then stained for 30 min at 4° C. in 1% BSA containing one of the following antibodies: W6/32, pete4, pasta-1, anti-HLA-A68-reactive mAb, BB7.2 or with an isotype control antibody. After washing the cells to remove excess unbound antibody, the primary antibodies bound to the cells were detected by incubation at 4° C. for 25 min with either goat anti-mouse Alexa-Fluor 647 IgG (Invitrogen Molecular Probes, Thermo Fisher Scientific) or with Alexa-Fluor 647-conjugated streptavidin (Invitrogen Molecular Probes, Thermo Fisher […]"}, "[2]": {"tested_on": "surface MHC class I molecules (HLA-A*68:02) on HeLaM cells", "assay": "Binding of exogenous soluble TAPBPR to cells (PeTe-4 staining)", "design": "species or system human", "conditions": "cells lacking classical MHC class I expression", "protocol": "as §1, §2"}, "HLA-A*68:02": {"target": "T2, HLA-A*68:02 (Homo sapiens, UniProt P04439, A269V/D140Y/D185E/E176V/E277Q/E87N/F33Y/G231S/I121R/I166T/I218V/L180W/L300P/L318F/N151K/P208A/P217A/Q86R/R138H/R169H/S129P/T345S/V36M)", "T2 construct": "HLA-A68 (MHC class I) expressed on HeLa; endogenous in cells; host or cells: HeLaM and derivatives (TAPBPR-KO with or without TAPBPR/tapasin constructs, +Her2, Her2-KO, +PDL1, pD-GFP); in some arms HeLaM-HLA-ABC-KO re-expressing HLA-A*68:02", "assay": "Fluorescent peptide binding to HeLaM cells treated with exogenous soluble TAPBPR", "assay_type": "cell-based", "protocol": "(§3) Target cell lines were seeded at 25,000-30,000 cells/well in 12-well plates and stimulated with IFN-γ. Following the stimulation period, the cells were washed 3 times with 1×PBS and incubated with 300 μL pre-warmed opti-MEM (Thermo Fisher Scientific, UK). In case the peptide binding was done in the presence of recombinant TAPBPR, the cells were then treated with or without recombinant TAPBPR (100 nM for HLA-A*68:02 or 1 μM for HLA-A*02:01). After 15 min, the desired TAMRA-labelled peptide was added to the cells and incubated at 37° C. (15 min for HLA-A*68:02 or 60 min for HLA-A*02:01). In case the peptide binding was facilitated by over-expressed TAPBPR, the labelled peptide was directly added to the cells, without using recombinant TAPBPR. Following the peptide treatment, the cells were washed three times in 1×PBS and harvested. The level of bound peptide/cell was determined by flow cytometry, using the YelFL1 channel (Cytek).\nWe next asked whether the exogenous TAPBPR bound to surface MHC class I molecules was capable of peptide exchange similarly to the membrane anchored version. Following incubation of cells for 15 min at 37° C. in the presence or absence of 100 nM exogenous TAPBPR, cells were treated with or without 10 nM fluorescent peptide for an additional 15 mins."}, "[3]": {"target": "T3, HLA-A*02:01 naturally expressed on MCF-7 (Homo sapiens, UniProt P04439, D140Y/D185E/D98H/E176V/E277Q/G131W/G231S/I119V/I121R/I166T/I218V/L300P/L318F/N151K/N90K/P208A/P217A/Q86G/Q94H/R138H/R169H/T345S)", "T3 construct": "onto HLA-A*02:01 naturally expressed on MCF-7, a breast cancer cell line; endogenous in cells", "assay": "Fluorescent peptide loading onto MCF-7 cells by soluble TAPBPR", "assay_type": "cell-based", "protocol": "(YLL) followed by staining with the TCR-like mAb L1 specific for […]/HLA-A2 complexes. (6d) The MFI of L1 binding to MCF-7 cells −/+SD from three independent experiments. (6e) Bar graphs show T cell activity measured by IFN-γ secretion in fluorospot assays of a HLA-A2 restricted […] specific CD8+ T cell line when incubated with MCF-7 target cells as treated in FIG. 6b with the exception that non-fluorescent […] peptide at 100 pM was used. […] Error bars−/+SD. Note: In FIGS. 6a, 6b, & 6e IFNγ treated cells were used.\nas §3, with “Following the peptide treatment, the cells were washed three times in 1×PBS and harvested.” left out"}, "[4]": {"target": "surface GFP on HeLaM cells (Aequorea victoria, UniProt P42212, F64L/H231L/S65T)", "method": "(B) Histograms and (C) Bar graphs compare the binding of recombinant soluble TAPBPR (TAPBPR) with recombinant TAPBPR-fused to a nanobody specific for GFP (TAPBPR-GFPNB) to HeLaM cells (left) and HeLaM-pD-GFP cells (right). Histograms show the level of TAPBPR when the two cell lines were incubated with 100 nM protein while bar graphs summarise results using a range of concentrations of protein (0.001-100 nM). […] Each bar represents mean and standard deviation of three independent experiments."}},
  "data": [
    {"molecule": "B1", "values": [
      {"measurement": "binding of exogenous TAPBPR to HeLaM cells", "setting": "[1]", "value": "clearly detectable on the cell surface"},
      {"measurement": "binding of exogenous TAPBPR to HeLaM-HLA-ABC^KO cells", "setting": "[2]", "value": "could no longer bind"},
      {"measurement": "binding of exogenous fluorescent peptides ETVSK*QSNV and YVVPKVAK*V to HeLaM", "setting": "HLA-A*68:02; 100 nM exogenous TAPBPR 15 min, then 10 nM peptide 15 min", "value": "significant enhancement in the binding of exogenous fluorescent peptides"},
      {"measurement": "exogenous peptide binding over increasing ETVSK*QSNV concentrations", "setting": "HLA-A*68:02; -/+100 nM TAPBPR, 15 min", "value": "enhanced exogenous peptide binding to cells over a wide range of peptide concentrations"},
      {"measurement": "loading of fluorescent derivatives of tumour antigens IMDQVPFSV, […], LLGRNSFEV and RLLQETELV", "setting": "[3]; 1 μM TAPBPR 15 min, 10 nM peptide 60 min", "value": "significantly enhanced the loading"},
      {"measurement": "association of YLLEK*LWRL and NLVPK*VATV onto HLA-A2", "setting": "[3]; versus peptide alone or TAPBPR^TN5", "value": "enhanced the association"},
      {"measurement": "binding to either of the HeLaM cell lines", "setting": "[4]; 10 nM recombinant protein", "value": "did not exhibit any binding"},
      {"measurement": "binding to HeLaM cells (lacking GFP)", "setting": "[4]; 100 nM recombinant protein", "value": "bound at low levels"}
    ]}
  ]
}
